From paper PMC3596311, “PTB-Associated Splicing Factor (PSF) Is a PPARγ-Binding Protein and Growth Regulator of Colon Cancer Cells” (PLoS ONE, 2013)

Molecular target: T1, PSF, full-length, fused to the GAL4 DNA-binding domain (pFN11A-PSF) (human, UniProt P23246 1-707)
T1 construct: PTB-associated splicing factor (PSF), human, full-length cDNA (GenBank BC051192), 707 amino acids; CheckMate/Flexi Vector Mammalian Two-Hybrid System (Promega), vector pFN11A; also called Gal4-PSF; source: CV-1 cells, transiently transfected, mammalian two-hybrid fusion
T1 sequence (looked up): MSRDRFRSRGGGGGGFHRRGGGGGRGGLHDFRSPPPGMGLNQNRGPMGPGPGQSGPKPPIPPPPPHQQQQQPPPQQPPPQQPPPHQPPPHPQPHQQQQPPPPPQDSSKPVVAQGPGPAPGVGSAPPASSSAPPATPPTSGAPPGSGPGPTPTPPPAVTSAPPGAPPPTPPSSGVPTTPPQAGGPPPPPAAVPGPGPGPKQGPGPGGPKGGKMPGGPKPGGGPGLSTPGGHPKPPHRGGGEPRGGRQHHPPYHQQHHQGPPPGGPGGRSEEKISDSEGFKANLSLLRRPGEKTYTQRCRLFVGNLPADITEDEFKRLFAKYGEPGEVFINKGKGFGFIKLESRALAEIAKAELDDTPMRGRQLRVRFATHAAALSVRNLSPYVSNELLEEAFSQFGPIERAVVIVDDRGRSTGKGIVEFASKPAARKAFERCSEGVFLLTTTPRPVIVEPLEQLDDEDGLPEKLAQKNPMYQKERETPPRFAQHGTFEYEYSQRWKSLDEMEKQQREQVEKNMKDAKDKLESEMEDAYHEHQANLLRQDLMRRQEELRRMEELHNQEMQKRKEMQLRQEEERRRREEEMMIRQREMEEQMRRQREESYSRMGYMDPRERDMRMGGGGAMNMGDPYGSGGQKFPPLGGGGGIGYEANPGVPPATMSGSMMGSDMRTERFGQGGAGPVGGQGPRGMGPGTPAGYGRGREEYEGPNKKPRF
Assay: two-hybrid; mammalian two-hybrid in CV-1 cells: GAL4 DNA-binding domain-PSF (pFN11A) and VP16-PPARγ1 (pFN10A), GAL4-UAS luciferase reporter; also with rosiglitazone 0.1–10 µM, which did not affect the interaction
Conditions: partners not purified

- fold induction of GAL4 promoter-driven luciferase over empty vectors: 3 fold
B1: PPARγ1, full-length, fused to the VP16 activation domain (pFN10A-PPARγ1) (natural protein, UniProt P37231-2 1-477, looked up)
chain: MTMVDTEMPFWPTNFGISSVDLSVMEDHSHSFDIKPFTTVDFSSISTPHYEDIPFTRTDPVVADYKYDLKLQEYQSAIKVEPASPPYYSEKTQLYNKPHEEPSNSLMAIECRVCGDKASGFHYGVHACEGCKGFFRRTIRLKLIYDRCDLNCRIHKKSRNKCQYCRFQKCLAVGMSHNAIRFGRMPQAEKEKLLAEISSDIDQLNPESADLRALAKHLYDSYIKSFPLTKAKARAILTGKTTDKSPFVIYDMNSLMMGEDKIKFKHITPLQEQSKEVAIRIFQGCQFRSVEAVQEITEYAKSIPGFVNLDLNDQVTLLKYGVHEIIYTMLASLMNKDGVLISEGQGFMTREFLKSLRKPFGDFMEPKFEFAVKFNALELDDSDLAIFIAVIILSGDRPGLLNVKPIEDIQDNLLQALELQLKLNHPESSQLFAKLLQKMTDLRQIVTEHVQLLQVIKKTETDMSLHPLLQEIYKDLY
notes: CheckMate/Flexi Vector Mammalian Two-Hybrid System (Promega), vector pFN10A; also called VP16-PPARγ; VP-16-PPARγ1; source: CV-1 cells, transiently transfected, mammalian two-hybrid fusion
